Results on 6 molecules are retold here after publication PMC11198818, “Positive charges promote the recognition of proteins by the chaperone SlyD from Escherichia coli” (PLOS ONE, 2024).

cellulose membrane = Whatman 540 cellulose membrane solid support derivatized with two β-Ala residues; βAla = NCCC(=O)O

The target in test [1] is C-terminally hexahistidine-tagged SlyD from Escherichia coli (E. coli) (UniProt P0A9K9). Briefly: ITC; VP-ITC, 30°C, 10 mM potassium phosphate pH 7.6 or 7.8; His-tagged SlyD or variant 30 μM in the cell; HiPIP precursor injected, 200 μM (Fig 3) or 100 μM (Fig 4).
Test [2] concerns the target T1, SlyD from Escherichia coli, C-terminally tagged with a Strep-tag II (E. coli, UniProt P0A9K9 1-196, 35S-methionine label (peptide arrays)).
T1 construct: SlyD, chaperone and FKBP-family prolyl isomerase, Escherichia coli; also called Strep-tagged SlyD; 35S-labeled SlyD; source: E. coli BW25113 ΔdnaK (pBW-slyD-strep), soluble, purified (StrepTactin) for the peptide arrays; not shown: Strep-tag II, C-terminal, kept
T1 sequence: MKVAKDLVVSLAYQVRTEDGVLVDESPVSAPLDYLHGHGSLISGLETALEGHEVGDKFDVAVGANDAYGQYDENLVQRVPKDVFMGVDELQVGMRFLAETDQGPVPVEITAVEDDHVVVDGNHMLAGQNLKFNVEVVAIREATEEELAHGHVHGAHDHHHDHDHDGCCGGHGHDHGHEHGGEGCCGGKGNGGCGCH
Briefly: peptide or protein array; 13-mer peptides synthesised in spots on cellulose membrane; 35S-methionine-labelled Strep-tagged SlyD incubated 2 h at room temperature, washed in TBS (31 mM Tris-HCl pH 7.6, 170 mM NaCl, 6.4 mM KCl), phosphorimaging. As to conditions: both partners purified.

The target in test [3] is SlyD F96N, C-terminally His-tagged (E. coli, UniProt P0A9K9 1-196, F96N). Briefly: ITC.
Test [4] addresses SlyD F84N, C-terminally His-tagged (E. coli, UniProt P0A9K9 1-196, F84N). Briefly: ITC.
Test [5] addresses SlyD F96G, C-terminally His-tagged (E. coli, UniProt P0A9K9 1-196, F96G). Briefly: ITC. Background: In ITC the heat of successive injections is recorded.
In test [6] the target is SlyD E113A, C-terminally His-tagged (E. coli, UniProt P0A9K9 1-196, E113A). Briefly: ITC.
For test [7], the target named is SlyD F96A, C-terminally His-tagged (E. coli, UniProt P0A9K9 1-196, F96A). Briefly: ITC.
Test [8] addresses SlyD F84N/F96N, C-terminally His-tagged (E. coli, UniProt P0A9K9 1-196, F84N | F96N). Briefly: ITC.
Test [9] addresses SlyD E89A, C-terminally His-tagged (E. coli, UniProt P0A9K9 1-196, E89A). Briefly: ITC.
In test [10] the target is single-exchange SlyD variants of the hydrophobic active site (F84A, F84N, F96A, F96G, F96N). Briefly: ITC; VP-ITC, 30°C, 10 mM potassium phosphate pH 7.6 or 7.8; His-tagged SlyD or variant 30 μM in the cell; HiPIP precursor injected, 200 μM (Fig 3) or 100 μM (Fig 4).
The target in test [11] is T2, C-terminally hexahistidine-tagged SlyD from Escherichia coli (E. coli, UniProt P0A9K9 1-196).
T2 chain: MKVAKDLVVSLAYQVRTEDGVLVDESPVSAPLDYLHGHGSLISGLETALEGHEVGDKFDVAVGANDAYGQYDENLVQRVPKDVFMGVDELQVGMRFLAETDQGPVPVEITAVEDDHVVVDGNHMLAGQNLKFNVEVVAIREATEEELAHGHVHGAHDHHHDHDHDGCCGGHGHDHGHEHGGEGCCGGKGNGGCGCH
Briefly: ITC.

For test [12], the target named is T3, SlyD D101A, C-terminally His-tagged (E. coli, UniProt P0A9K9 1-196, D101A).
T3 construct: SlyD, Escherichia coli; not shown: His6, C-terminal, kept
T3 sequence: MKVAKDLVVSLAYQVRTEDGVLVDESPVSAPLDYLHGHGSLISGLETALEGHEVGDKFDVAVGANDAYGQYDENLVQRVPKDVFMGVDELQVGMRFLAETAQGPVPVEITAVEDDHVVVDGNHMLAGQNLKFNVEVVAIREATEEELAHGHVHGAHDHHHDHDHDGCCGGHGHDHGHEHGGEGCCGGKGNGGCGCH
Briefly: ITC; VP-ITC, 30°C, 10 mM potassium phosphate pH 7.6 or 7.8; His-tagged SlyD or variant 30 μM in the cell; HiPIP precursor injected, 200 μM (Fig 3) or 100 μM (Fig 4). The note with it: both partners purified.

Test [13] concerns the target T4, SlyD E108A, C-terminally His-tagged (E. coli, UniProt P0A9K9 1-196, E108A).
T4 construct: SlyD, Escherichia coli; not shown: His6, C-terminal, kept
T4 sequence: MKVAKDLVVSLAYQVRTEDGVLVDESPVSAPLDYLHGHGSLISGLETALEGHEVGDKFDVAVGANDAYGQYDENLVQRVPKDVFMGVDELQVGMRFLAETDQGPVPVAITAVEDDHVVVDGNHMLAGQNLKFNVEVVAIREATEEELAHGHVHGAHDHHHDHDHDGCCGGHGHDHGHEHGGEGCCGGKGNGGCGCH
The description is as above. The note with it: both partners purified.

Test [14] deals with T5, C-terminally hexahistidine-tagged SlyD from Escherichia coli (E. coli, UniProt P0A9K9 1-196).
T5 construct: SlyD, chaperone and FKBP-family prolyl isomerase, Escherichia coli; also called His-tagged SlyD; wild type; not shown: His6, C-terminal, kept
T5 sequence: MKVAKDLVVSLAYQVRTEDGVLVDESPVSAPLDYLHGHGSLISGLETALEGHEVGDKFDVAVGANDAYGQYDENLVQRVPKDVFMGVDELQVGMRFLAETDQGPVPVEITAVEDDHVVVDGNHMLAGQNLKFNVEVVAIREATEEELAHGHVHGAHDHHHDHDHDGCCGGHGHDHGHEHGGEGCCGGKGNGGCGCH
The test is described as above. The note with it: both partners purified.

Test [15] has as its target T6, SlyD E73A, C-terminally hexahistidine-tagged (Escherichia coli, UniProt P0A9K9 1-196, E73A).
T6 construct: SlyD of Escherichia coli (FKBP-type prolyl isomerase and chaperone); not shown: His6, C-terminal, kept
T6 sequence: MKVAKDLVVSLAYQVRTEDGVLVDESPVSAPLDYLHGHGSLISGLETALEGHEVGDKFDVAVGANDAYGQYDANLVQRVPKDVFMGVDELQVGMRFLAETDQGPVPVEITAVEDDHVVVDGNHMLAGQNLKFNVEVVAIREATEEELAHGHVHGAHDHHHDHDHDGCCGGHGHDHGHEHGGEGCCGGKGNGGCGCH
Briefly: ITC; VP-ITC, 30°C, 10 mM potassium phosphate buffer (pH 7.6 or 7.8); SlyD variant 30 μM in the cell, HiPIP precursor 100 μM injected (2x 22 injections of 10 μL). The note with it: both partners purified.

Test [16] addresses T7, SlyD E113A, C-terminally hexahistidine-tagged (Escherichia coli, UniProt P0A9K9 1-196, E113A).
T7 construct: SlyD of Escherichia coli (FKBP-type prolyl isomerase and chaperone); not shown: His6, C-terminal, kept
T7 sequence: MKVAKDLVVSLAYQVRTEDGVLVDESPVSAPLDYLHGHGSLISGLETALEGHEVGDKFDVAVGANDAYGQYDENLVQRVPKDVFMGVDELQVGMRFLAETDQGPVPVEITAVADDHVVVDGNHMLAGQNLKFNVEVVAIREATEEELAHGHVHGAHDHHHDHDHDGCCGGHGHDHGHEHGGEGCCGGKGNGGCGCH
The description is as above. The note with it: both partners purified.

Test [17] deals with T8, SlyD E89A, C-terminally hexahistidine-tagged (Escherichia coli, UniProt P0A9K9 1-196, E89A).
T8 construct: SlyD of Escherichia coli (FKBP-type prolyl isomerase and chaperone); not shown: His6, C-terminal, kept
T8 sequence: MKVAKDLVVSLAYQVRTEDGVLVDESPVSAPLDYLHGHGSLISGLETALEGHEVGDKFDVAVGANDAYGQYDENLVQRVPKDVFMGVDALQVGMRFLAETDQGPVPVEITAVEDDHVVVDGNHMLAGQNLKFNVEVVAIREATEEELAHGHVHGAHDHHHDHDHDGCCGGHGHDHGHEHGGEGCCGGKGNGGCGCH
The test is described as above. As to conditions: both partners purified.

Test [18] has as its target T9, SlyD D115A, C-terminally hexahistidine-tagged (Escherichia coli, UniProt P0A9K9 1-196, D115A).
T9 construct: SlyD of Escherichia coli (FKBP-type prolyl isomerase and chaperone); not shown: His6, C-terminal, kept
T9 sequence: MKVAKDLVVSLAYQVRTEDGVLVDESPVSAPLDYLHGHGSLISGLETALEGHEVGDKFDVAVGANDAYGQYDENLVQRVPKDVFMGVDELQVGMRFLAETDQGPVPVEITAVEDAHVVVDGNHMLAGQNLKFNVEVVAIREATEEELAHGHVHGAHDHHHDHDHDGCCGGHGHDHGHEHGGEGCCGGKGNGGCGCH
The description is as above. As to conditions: both partners purified.

Test [19] concerns the target T10, SlyD Y68S, C-terminally hexahistidine-tagged (Escherichia coli, UniProt P0A9K9 1-196, Y68S).
T10 construct: SlyD of Escherichia coli (FKBP-type prolyl isomerase and chaperone); not shown: His6, C-terminal, kept
T10 sequence: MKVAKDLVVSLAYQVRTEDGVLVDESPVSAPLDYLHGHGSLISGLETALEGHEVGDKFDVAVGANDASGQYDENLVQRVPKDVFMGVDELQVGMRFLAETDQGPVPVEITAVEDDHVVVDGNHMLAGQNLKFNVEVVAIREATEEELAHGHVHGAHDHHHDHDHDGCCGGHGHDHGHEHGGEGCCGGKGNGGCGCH
Described as above. As to conditions: both partners purified.

As usually defined, the Kd is the concentration at which binding is half-saturated. As to “HiPIP precursor with an RR>KK exchange (from UniProt P00260 38-122) (natural protein)”, in test [1], the equilibrium dissociation constant (Kd) amounted to 1180 nM and the dH is -7.7 kcal/mol.

B1: twin-lysine peptide in an oligoglycine environment (GGGGGXXGGGGGG, X = K) (peptide)
peptide: Ac-GGGGGKKGGGGGG-{βAla-βAla-cellulose membrane}
notes: the printed pattern GGGGGXXGGGGGG with X = K; The acetyl group and the spacer are told in the methods for the spot synthesis in general; also called lysines in a glycine environment; source: synthetic peptide, spot synthesis on cellulose membrane
Consider B1, for which, in [2], the binding result is “binds”.

B2: twin-arginine peptide in an oligoglycine environment (GGGGGXXGGGGGG, X = R) (peptide)
peptide: Ac-GGGGGRRGGGGGG-{βAla-βAla-cellulose membrane}
notes: the printed pattern GGGGGXXGGGGGG with X = R; The acetyl group and the spacer are told in the methods for the spot synthesis in general; also called arginines in a glycine environment; source: synthetic peptide, spot synthesis on cellulose membrane
Consider B2, for which, in test [2], the binding result was “binds”.

B3: wild type HiPIP precursor from Allochromatium vinosum (natural protein, UniProt P00260 1-122, looked up)
chain: MSDKPISKSRRDAVKVMLGTAAAIPMINLVGFGTARASAPANAVAADDATAIALKYNQDATKSERVAAARPGLPPEEQHCANCQFMQADAAGATDEWKGCQLFPGKLINVNGWCASWTLKAG
notes: HiPIP (high-potential iron-sulfur protein), Allochromatium vinosum; the precursor with its Tat signal peptide; Called a fully folded Tat substrate; also called RR-HiPIP; signal-peptide-containing HiPIP precursor
Take B3: the equilibrium dissociation constant (Kd) was 8900 nM in test [3]; 6600 nM in [4]; 5700 nM in test [5]; 500 nM in test [6]; 4900 nM in test [7]; above 360000 nM in test [8]. The Kd in test [9] is 400 nM; in test [10], 4000 to 10000 nM; in [11], 400 nM; in test [12] it was 950 nM; in test [13] it was 1820 nM; in [14], around 350 nM. In [14], this molecule yielded a dH of around -9.06 kcal/mol.

B4: HiPIP precursor (RR-HiPIP) from Allochromatium vinosum (natural protein)
chain: MSDKPISKSRRDAVKVMLGTAAAIPMINLVGFGTARASAPANAVAADDATAIALKYNQDATKSERVAAARPGLPPEEQHCANCQFMQADAAGATDEWKGCQLFPGKLINVNGWCASWTLKAG
modifications: HiPIP precursor; fully folded, [4Fe-4S] cluster presumed; signal peptide retained
Regarding B4, the Kd in test [15] was found to be 321 nM; in test [16], 493 nM; in test [17], 380 nM; in test [18] it was 272 nM; in test [19], 299 nM.

B5: HiPIP precursor with an RR>QQ exchange (natural protein)
chain: MSDKPISKSQQDAVKVMLGTAAAIPMINLVGFGTARASAPANAVAADDATAIALKYNQDATKSERVAAARPGLPPEEQHCANCQFMQADAAGATDEWKGCQLFPGKLINVNGWCASWTLKAG
modifications: HiPIP precursor; [4Fe-4S] cluster presumed; RR>QQ positions derived from primer hip-QQ-F, which encodes DKPISKSQQDAVKVML
As to B5, the Kd in test [14] worked out at 38700 ± 2000 nM.
